Reference: the DeepSol protein solubility set

assay: soluble on expression in E. coli; label from the status in PepcDB or PDB records

Row | Sequence | soluble on expression in E. coli
1 | MGHHHHHHSHMSSILPFTPPIVKRLLGWKKGEQNGQEEKWCEKAVKSLVKKLKKTGQLDELEKAITTQNVNTKCITIPRSLDGRLQVSHRKGLPHVIYCRLWRWPDLHSHHELRAMELCEFAFNMKKDEVCVNPYHYQRVETPVLPPVLVPRHTEIPAEFPPLDDYSHSIPENTNFPAGIEPQSNIPETPPPGYLSEDGETSDHQMNHSMDAGSPNLSPNPMSPAHNNLDLQPVTYCEPAFWCSISYYELNQRVGETFHASQPSMTVDGFTDPSNSERFCLGLLSNVNRNAAVELTRRHIGRGVRLYYIGGEVFAECLSDSAIFVQSPNCNQRYGWHPATVCKIPPGCNLKIFNNQEFAALLAQSVNQGFEAVYQLTRMCTIRMSFVKGWGAEYRRQTVTSTPCWIELHLNGPLQWLDKVLTQMGSPSIRCSSVS | soluble
2 | MGHHHHHHSHMTECRKSVPCGWERVVKQRLFGKTAGRFDVYFISPQGLKFRSKSSLANYLHKNGETSLKPEDFDFTVLSKRGIKSRYKDCS | not soluble
3 | MGHHHHHHSHMTIEEFAAGPAQSGILVDREVVSLFLHFTVNPKPRVEFIDRPRCCLRGKECSINRFQQVESRWGYSGTSDRIRFSVNKRIFVVGFGLYGSIHGPTDYQVNIQIIHTDSNTVLGQNDTGFSCDGSASTFRVMFKEPVEVLPNVNYTACATLKGPDSHYGTKGLRKVTHESPTTGAKTCFTFCYAAGNNNGTSVEDGQIPEVIFYT | not soluble
4 | MGHHHHHHSHMTVHIKVYSDYVCPFCFVGKAAFEEAIKGKDVEVEWMPFELRPSPSPQLDPVNDPSKQYMWQTSIQPMAEKLGVEINFPNVSPHPYTDLAFEGFHFAKEYNKGHEYNTRVFQAFFQEDQNIGDIDILTKLAEEVGLDGASFKSALETRTYQDVQRQALKHAYEEADITAVPTFIIGDTVIPGAAGKDVFEKAISDEQKKK | not soluble
5 | MGHHHHHHSHPQLLHFVDQYREQLIARVTSVEVVLDKLHGQVLSQEQYERVLAENTRPSQMRKLFSLSQSWDRKCKDGLYQALKETHPHLIMELWEKG | not soluble
6 | MGHHHHHHSHQGEEELVSQTDVKTFLEALPQESWQNKHAGSNGNRATNGAPSLVSRGMQGASANTLNSETSTKRAAVYRMNRNHRGLCVIVNNHSFTSLKDRQGTHKDAEILSHVFQWLGFTVHIHNNVTKVEMEMVLQKQKCNPAHADGDCFVFCILTHGRFGAVYSSDEALIPIREIMSHFTALQCPRLAEKPKLFFIQACQGEEIQPSVSIEADALNPEQAPTSLQDSIPAEADFLLGLATVPGYVSFRHVEEGSWYIQSLCNHLKKLVPRMLKFLEKTMEIRGRKRTVWGA | not soluble
7 | MGHHHHHHSHRIVILQGAAGIGKSTLARQVKEAWGRGQLYGDRFQHVFYFSCRELAQSKVVSLAELIGKDGTATPAPIRQILSRPERLLFILDGVDEPGWVLQEPSSELCLHWSQPQPADALLGSLLGKTILPEASFLITARTTALQNLIPSLEQARWVEVLGFSESSRKEYFYRYFT | not soluble
8 | MGHVLIEMMGIKKGDFVLDVGCGTGRQALNVAGIIGPAGKLTGIDPSSYRIELARKKFEGDSSGNVRFLVRQAENLQDIPDNSINHAYFCSSFHWVDDKKTALNEIFRVLRPGGKVGMTTLDRNSPNTMKALIDPILAKFGIERRHEWHRGMKKVTAPELHDLLSGAGFTSISIEPRAVPRKYNSPEEFLQHPEEKDSSRGILRDISNETLEKLRQEITEEFRKAQTPEDIGFGNITLFAIATKAQEGLEHHHHHH | soluble
9 | MGHYRGTWLEIGRMPMLLTDGCVAGYSTYRQGKSADEVLVEDGCREGTPQGKLKTINGVGKIEDFASTKAKMRVRYPLLITFNYWVLYKSPDKSWFISANPSTEDVWVYARSVPSKAKLNRMMMKVRELGYDVKKLEFPLEHHHHHH | soluble
10 | MGIAEWRYQDVPEKLWPIQPLRDFWGINKRTEKKLNKRGIFTIGDLAKYPYHYLKRDFGVLGIDMHLHANGIDQSKLEHHHHHH | not soluble
11 | MGILNKILTAFRGGATEVGQSIVDANSTRIFEQEIRDAEKHLTNAKRELTDVMAKEMQASREVDRLKRSIAEHEGYVTQALDKGNEALAIEVAEKIAQLEQELAEQQTANDSFSAHALRLKDLVKKTERQLSDYQRQLSMVKTTESVQKATATITDSFASSNSKLLNAKDSLERIKARQQQFDDRLKAAETLAEEGSDKSLQAKLAEAGIGEQKSNANAVLERIKARKSLEHHHHHH | not soluble
12 | MGKALLIVNPSSGKEKGKTYQGKTEEVLKKRYDEVEVRLTEKAGDATEFASWASEQGFDAVIAMGGDGTLNETINGLAIHEKRPDFGFIPLGTVNDLARSVGIPLKPEKAIQALEKAKAIPMDIGRIGDQ | not soluble
13 | MGKHEKGSSKDLANRTKSKGLQKLKFFCQMCQKQCRDANGFKCHLTSEAHQRQLLLFAENSNSYLRQFSNDFEKNFMQLLRTSYGTKRVRANEVYNAFIKDKGHVHMNSTVWHSLTGFVQYLGSSGKCKIDEGDKGWYIAYIDQEALIRKEEDQRKQQQEKDDEERHMQIMDGMVQRGKELAGDDEHEYEATELIRDTPDQKIQLDLNLGILDRKLDVKSGVASAKISIFDMPKVKKEDPDEPGPSQPSRKSGKKRSRSRSPAAKKFSKKSALDEIKEMEERKKERKNRKDYWMREGIVVKVITKSLGSEYYKAKGVVRKVVDDYTAQVKLDDGTVVKLDQEHVETVIPSLGRQMMIVNGAYRGQEATLESIDEKRFSLRLKIASGPTRGRQIDVPYEDASKLA | not soluble
14 | MGKLYVVPTPVGNLEDMTFRAIKVLKEADLILAEDTRTSGILLKHFEIKNVMQSHHKFNEHKTVESVVNRIKAGETIALISDAGTPGISDPGFLVVRECVRNGIEVQCLPGA | not soluble
15 | MGKRKAFIDKKASQSFRLVPDNRERSERFKPTQEHLEEQQKYGVYYDDDYDYLQHMRAVNEPMKLENVHEEVEKTTIKTSGSSAFPPAPPLFGLVGALKKPEFFDEDVANALEEVTDDRNTGELEDNFITLAGGLLDERTTVYRSTRRGEDSEEEEDDDEDDEMYDDYNDDELFGEEAVGEIRVERADQRVIDNAFEELMDREYNTDQIGELDGDDYDVGGALEPNAGRLHKLINDKGPSNAEYDEELAKHYVRERMRLIEEGVIKDKEEYEIVEVDEGTNKKMKWDCESFATQYTNIYNHPTLIKEPRGLSRKALKRFDKAVEEMDIAEEDEDDDEDMEDDDDKESVFSTVSTFRPKNETPEQRSLRKKAVKEARKLRRVEKKANKTMFAEEKRKLAKGRIGQIKARPI | not soluble
16 | MGKRKSKRKAPTKAKAVMPLDTQFNCPFCNHERVCEVKMDREKNVGYISCRVCSEDFQTNINYLSEPIDVYSDWVDACEQANNA | not soluble
17 | MGKTQEFLRLRRIIALSSLLASRKSAMCLAVLALHAIPGLPVLIAANRDEFHARPTAEATRWPGSPAIYAGRDLQAGGTWLGVSDQGRYAVVTNFRDPRNIQPDAPSRGALVEAFLRGAASAQEYLRDVHARGARYNGFNLIVGDAGGAWYCSNRDGAPQRLAAGVYALSNHLLDTPWPKLARTKAAFERIIAATPQPDLAALYAALADPTPAADHELPATGLALERERLLSSPFIVSPDYGTRSACILALHDDGRGELHERRFRPDGAIAGQADLDFPWRAARAELHRASCVLEHHHHHH | not soluble
18 | MGLCVSVNRNEYVSSSTTAKIVTINGDLREYDVPVLASQVLESESTSSSSSSSSSSYFLCNSDSLYYDDFIPAIESDEILQANQIYFVLPISKRQYRLSASDMAALAVKASVAIEKAAGKKNRRRRSGRISPVVTLNQANDNRIAAVNNRIGGEATNMMMQKGKLPNRTTPFKDTNGYSRSGSVRKLKRYTSGRAKLAVRSFRLRLSTIYEGSSFN | not soluble
19 | MGLDIRFTGVADSSGALHDPDGLDIRGVLEHKKRAGLGSHPSGYEGMTGDELLDEAEYDCLVEATPTNIEDGEPGRSLVLKAMGDGKHVVTSNKGHLALFYSELMEAASEAGVEFMFEASVGGAMPIINLARETLASCTIESVIGILNGTTNFILSRMASEGSSYRQALIEAQELGIAETNPAQDVEGTDAACKAVIIANSILGRPCTLRDVRVEGITGITQGAIELAAQEGYLIKLIAEISGDRLEVGPRLVRMGSPYAVDGTLNMATLRTDLAGEVTAVGRGAGSLETASAMLTDTITIWRKSGLEHHHHHH | not soluble
20 | MGLFQIKPDIHYGANSLDILRTLEMEKVFLVTDENMVKLKVINKVTNILKSRGIEAKVYSDVKPDPTDEEIIKGMLELSAHDPDCIIALGGGSPIDACKSMIYFTNQIKRAMGQNKKPKFIAIPTTSGTGSEVTSYAVVTTKDKKIPLSDSEMLPDIAILNPEFIKTLSPSIIADTGMDVLTHAIEAYVSKSRNLFTNTFAIGAIKTVFADLVSNFENPQLEKERINLQIASCMAGVAFSNAGLGINHSIAHSLGARFHKPHGRLNAVIMSEVIQFNARNKNAAKYYREIVEALGFSPKEDVEGVEILAKAIKMRAAKMGIPNSLSELGIPKEQYFDEMEGIIDQIENDMCTGENPRRFSRIEMKQLLTDLY | not soluble
21 | MGLIIYHKGGRKMKKNILIVGGGPEITICYDLINNSTEYNFFSVSEIPTMYPELFVETIETSFRNFGKTIEQIKELKYSIDAVACWDEALTHIADDISKELGLNPISSLDSQSFRFKDRMRMVCEAGGLKMPKYKIINQFSDTNKIINWKYPLIVKPTSFLASIGVKKVYNFSELQQAVSQMLNVKFPVYIASGVYELGELYNLEPRVLVEEFIDGEEYSLESVVRNGIYTPLGITKKIVDEKLFMDEIGHIFPSNLNKEEKSRVYSWAEKLHQILQLNHITTHTEFRIGRNGDIILIEIGARIGGDCIPNLMKNSFIVKGFDFYNTYLKARLGLQEELNTDTNKFSGIVFFRLNPENYGKIFNGVSYDAPKTSLIFEEKIYKKEGTVLPNPINWSNERVGYVCLENKEYAVLEKEMKEILKSLSIE | not soluble
22 | MGLISAAVGAVGGGLADQWLEVIEAGDMGEGIVLAKGVAVRTDKRNTNKKGSSDVVSNGSIIHVNQNQFMMLVDGGKIVDYTAEPGYFKVENSASPSLFGGQFGDALKETFSRFKFGGTTPMKQEVFYVNLQEIKGIKFGTPNPLQYFDNFYNAELFLRTFGNYSIKITDPIKFFKEACPRDAENVHIDEINEQYLSEFLEALQAAISQMSMEGERISFIPSKGTVLSKHMSEILDDSWKELRGMEVLSVGIASISYDDESKELINMRNKGAMLGDPGVREGYVQGSIARGMEAAGSNQAGAGMAFMGMGMGMNAAGGFMGQASQTNMQQMQMNQAAQRAAQGAGQQQGAGAKAAGEWFCTECGHKNTGKFCAECGTPKPQGLEHHHHHH | soluble
23 | MGLLALGTPLQWFESRTYNEHIRDEGIEQLLYIFQAAGKRDNDPLFWGDELEYMVVDFDDKERNSMLDVCHDKILTELNMEDSSLCEANDVSFHPEYGRYMLEATPASPYLNYVGSYVEVNMQKRRAIAEYKLSEYARQDSKNNLHVGSRSVPLTLTVFPRMGCPDFINIKDPWNHKNAASRSLFLPDEVINRHVRFPNLTASIRTRRGEKVCMNVPMYKDIATPETDDSIYDRDWFLPEDKEAKLASKPGFIYMDSMGFGMGCSCLQVTFQAPNINKARYLYDALVNFAPIMLAFSAAAPAFKGWLADQDVRWNVISGAVDDRTPKERGVAPLLPKYNKNGFGGIAKDVQDKVLEIPKSRYSSVDLFLGGSKFFNRTYNDTNVPINEKVLGRLLENDKAPLDYDLAKHFAHLYIRDPVSTFEELLNQDNKTSSNHFENIQSTNWQTLRFKPPTQQATPDKKDSPGWRVEFRPFEVQLLDFENAAYSVLIYLIVDSILTFSDNINAYIHMSKVWENMKIAHHRDAILFEKFHWKKSFRNDTDVETEDYSISEIFHNPENGIFPQFVTPILCQKGFVTKDWKELKHSSKHERLYYYLKLISDRASGELPTTAKFFRNFVLQHPDYKHDSKISKSINYDLLSTCDRLTHLDDSKGELTSFLGAEIAEYVKKNKPSIESKCDKLAAALGHHHHHH | soluble
